Test results as given in patent US20240400708A1.
Residue numbers refer to the chain shown, from its start. In names and notes the source's numbering stands. Blank lines part the entries; values can stand above or below the binder they belong to.

Legend:
[1] = target: feline FcRn complex (FcRn-α subunit and β-microglobulin), biotin labeled (feline); assay: SPR, pH 7.4
[2] = target: feline FcRn complex (FcRn-α subunit and β-microglobulin), biotin labeled (feline); assay: SPR, pH 6

B1: feline IgG1a S252F/S434Y (antibody, part only; not given: Variable domains, not shown: another chain or arm of the molecule)
constant: ASTTAPSVFPLAPSCGTTSGATVALACLVLGYFPEPVTVSWNSGALTSGVHTFPAVLQASGLYSLSSMVTVPSSRWLSDTFTCNVAHPPSNTKVDKTVRKTDHPPGPKPCDCPKCPPPEMLGGPSIFIFPPKPKDTLFISRTPEVTCLVVDLGPDDSDVQITWFVDNTQVYTAKTSPREEQFNSTYRVVSVLPILHQDWLKGKEFKCKVNSKSLPSPIERTISKAKGQPHEPQVYVLPPAQEELSRNKVSVTCLIKSFHPPDIAVEWEITGQPEPENNYRTTPPQLDSDGTYFVYSKLSVDRSHWQRGNTYTCSVSHEALHYHHTQKSLTQSPGK
Kd [1]: 1470 nM | Kd [2]: 9.28 nM

B2: feline IgG1a S428Y/Q311W/L314K (antibody, part only; not given: Variable domains, not shown: another chain or arm of the molecule)
constant: B1 constant with F138S, Q197W, L200K, S316Y, Y322S
Kd [1]: 348 nM | Kd [2]: 10.1 nM

B5: feline IgG1a S434Y (antibody, part only; not given: Variable domains, not shown: another chain or arm of the molecule)
constant: B1 constant with F138S
Kd [1]: 14.4 nM | Kd [2]: 0.433 nM

B6: feline IgG1a S252Y/D312P/S434Y (antibody, part only; not given: Variable domains, not shown: another chain or arm of the molecule; small tags and cut ends)
constant: B1 constant with F138Y, D198P
Kd [1]: 2.26 nM | Kd [2]: 0.0221 nM

B7: feline IgG1a S252Y/Q311W/D312P (antibody, part only; not given: Variable domains, not shown: another chain or arm of the molecule)
constant: B1 constant with F138Y, Q197W, D198P, Y322S
Kd [1]: 1130 nM | Kd [2]: 35.2 nM

B8: feline IgG1a D312P/L314K (antibody, part only; not given: Variable domains, not shown: another chain or arm of the molecule)
constant: B1 constant with F138S, D198P, L200K, Y322S
Kd [1]: 311 nM | Kd [2]: 7.24 nM

B9: feline IgG1a S252Y/S434H/Q311W (antibody, part only; not given: variable domains, not shown: another chain or arm of the molecule)
constant: B1 constant with F138Y, Q197W, Y322H
Kd [1]: 989 nM | Kd [2]: 8.39 nM

B11: feline IgG1a S252Y/S428Y/L314K (antibody, part only; not given: Variable domains, not shown: another chain or arm of the molecule)
constant: B1 constant with F138Y, L200K, S316Y, Y322S
Kd [1]: 23300 nM | Kd [2]: 7.93 nM

B14: feline IgG1a S252H/L314K (antibody, part only; not given: Variable domains, not shown: another chain or arm of the molecule; small tags and cut ends)
constant: B1 constant with F138H, L200K, Y322S
Kd [1]: 20 nM | Kd [2]: 6.37 nM

B19: feline IgG1a S252H/S428M/D312P (ID No. 221) (antibody, part only; not given: Variable domains, not shown: another chain or arm of the molecule)
constant: B1 constant with F138H, D198P, S316M, Y322S
Kd [1]: 330 nM | Kd [2]: 8.22 nM

B21: feline IgG1a S252H/S428M (antibody, part only; not given: Variable domains, not shown: another chain or arm of the molecule; small tags and cut ends)
constant: B1 constant with F138H, S316M, Y322S
Kd [1]: 101 nM | Kd [2]: 2.65 nM

B23: feline IgG1a S252Y/S434W/Q311W (antibody, part only; not given: Variable domains, not shown: another chain or arm of the molecule)
constant: B1 constant with F138Y, Q197W, Y322W
Kd [1]: 2190 nM | Kd [2]: 6.59 nM

B24: feline IgG1a S428Y/Q311W/D312P (antibody, part only; not given: Variable domains, not shown: another chain or arm of the molecule)
constant: B1 constant with F138S, Q197W, D198P, S316Y, Y322S
Kd [1]: 4190 nM | Kd [2]: 26 nM

B26: feline IgG1a S428Y/Q311W/S434Y (antibody, part only; not given: Variable domains, not shown: another chain or arm of the molecule; small tags and cut ends)
constant: B1 constant with F138S, Q197W, S316Y
Kd [1]: 1510 nM | Kd [2]: 3.8 nM

B27: feline IgG1a S428Y/L314K/S434Y (antibody, part only; not given: Variable domains, not shown: another chain or arm of the molecule)
constant: B1 constant with F138S, L200K, S316Y
Kd [1]: 17.2 nM | Kd [2]: 0.793 nM

B30: feline IgG1a S252Y/Q311W (antibody, part only; not given: Variable domains, not shown: another chain or arm of the molecule)
constant: B1 constant with F138Y, Q197W, Y322S
Kd [1]: 953 nM | Kd [2]: 26.9 nM

B31: feline IgG1a S252Y/Q311W/L314K (antibody, part only; not given: Variable domains, not shown: another chain or arm of the molecule)
constant: B1 constant with F138Y, Q197W, L200K, Y322S
Kd [1]: 179 nM | Kd [2]: 10.8 nM

B35: feline IgG1a S252Y/L314K/S434Y (antibody, part only; not given: Variable domains, not shown: another chain or arm of the molecule; small tags and cut ends)
constant: B1 constant with F138Y, L200K
Kd [1]: 2.85 nM | Kd [2]: 0.0496 nM

B38: feline IgG1a S252H/Q311Y (antibody, part only; not given: variable domains and light chain, not shown: another chain or arm of the molecule; small tags and cut ends)
constant: B1 constant with F138H, Q197Y, Y322S
Kd [1]: 36.5 nM | Kd [2]: 12.1 nM

More lines, in order of falling Kd [1], values ahead:

Kd [1]: 10900 nM | Kd [2]: 4.12 nM
B28: feline IgG1a S252Y/S434R (antibody, part only; not given: Variable domains, not shown: another chain or arm of the molecule; small tags and cut ends)
constant: B1 constant with F138Y, Y322R

Kd [1]: 8380 nM | Kd [2]: 10.2 nM
B20: feline IgG1a S252Y/S434W (antibody, part only; not given: Variable domains, not shown: another chain or arm of the molecule)
constant: B1 constant with F138Y, Y322W

Kd [1]: 8180 nM | Kd [2]: 6.95 nM
B17: feline IgG1a D312A (antibody, part only; not given: Variable domains, not shown: another chain or arm of the molecule; small tags and cut ends)
constant: B1 constant with F138S, D198A, Y322S

Kd [1]: 7630 nM | Kd [2]: 12.7 nM
B12: feline IgG1a S428Y/Q311W (antibody, part only; not given: Variable domains, not shown: another chain or arm of the molecule)
constant: B1 constant with F138S, Q197W, S316Y, Y322S

Kd [1]: 6860 nM | Kd [2]: 15.2 nM
B32: feline IgG1a S428Y/D312P/L314K (antibody, part only; not given: Variable domains, not shown: another chain or arm of the molecule)
constant: B1 constant with F138S, D198P, L200K, S316Y, Y322S

Kd [1]: 4080 nM | Kd [2]: 15.1 nM
B10: feline IgG1a S252Y/S428Y/D312P (antibody, part only; not given: variable domains, not shown: another chain or arm of the molecule)
constant: B1 constant with F138Y, D198P, S316Y, Y322S

Kd [1]: 2760 nM | Kd [2]: 34.1 nM
B36: feline IgG1a S428Y/D312P (antibody, part only; not given: Variable domains, not shown: another chain or arm of the molecule; small tags and cut ends)
constant: B1 constant with F138S, D198P, S316Y, Y322S

Kd [1]: 1850 nM | Kd [2]: 7.63 nM
B37: feline IgG1a S428Y/L314K (antibody, part only; not given: Variable domains, not shown: another chain or arm of the molecule)
constant: B1 constant with F138S, L200K, S316Y, Y322S

Kd [1]: 1820 nM | Kd [2]: 26.7 nM
B13: feline IgG1a S252Y/D312P/L314K (antibody, part only; not given: Variable domains, not shown: another chain or arm of the molecule)
constant: B1 constant with F138Y, D198P, L200K, Y322S

Kd [1]: 864 nM | Kd [2]: 1.48 nM
B3: feline IgG1a S428Y/D312P/S434Y (antibody, part only; not given: Variable domains, not shown: another chain or arm of the molecule; small tags and cut ends)
constant: B1 constant with F138S, D198P, S316Y

Kd [1]: 398 nM | Kd [2]: 3.59 nM
B33: feline IgG1a S252F/S434R (antibody, part only; not given: Variable domains, not shown: another chain or arm of the molecule; small tags and cut ends)
constant: B1 constant with Y322R

Kd [1]: 235 nM | Kd [2]: 4.65 nM
B4: feline IgG1a S428Y/S434Y (antibody, part only; not given: Variable domains, not shown: another chain or arm of the molecule)
constant: B1 constant with F138S, S316Y

Kd [1]: 141 nM | Kd [2]: 5.73 nM
B16: feline IgG1a S252H/S428M/Q311Y (antibody, part only; not given: Variable domains, not shown: another chain or arm of the molecule)
constant: B1 constant with F138H, Q197Y, S316M, Y322S

Kd [1]: 56.1 nM | Kd [2]: 5.86 nM
B15: feline IgG1a D312K (antibody, part only; not given: Variable domains, not shown: another chain or arm of the molecule)
constant: B1 constant with F138S, D198K, Y322S

Kd [1]: 54.6 nM | Kd [2]: 3.14 nM
B34: feline IgG1a S252H/S428M/Q311W (antibody, part only; not given: Variable domains, not shown: another chain or arm of the molecule)
constant: B1 constant with F138H, Q197W, S316M, Y322S

Kd [1]: 26.7 nM | Kd [2]: 3.9 nM
B18: feline IgG1a S252H/D312P (antibody, part only; not given: variable domains, not shown: another chain or arm of the molecule; small tags and cut ends)
constant: B1 constant with F138H, D198P, Y322S

Kd [1]: 25 nM | Kd [2]: 6.04 nM
B22: feline IgG1a S252H/Q311W (antibody, part only; not given: Variable domains, not shown: another chain or arm of the molecule; small tags and cut ends)
constant: B1 constant with F138H, Q197W, Y322S

Kd [1]: 21.6 nM | Kd [2]: 0.771 nM
B29: feline IgG1a S434W (antibody, part only; not given: Variable domains, not shown: another chain or arm of the molecule)
constant: B1 constant with F138S, Y322W

Kd [1]: 4.44 nM | Kd [2]: 0.143 nM
B25: feline IgG1a S252Y/S434R/Q311W (antibody, part only; not given: Variable domains, not shown: another chain or arm of the molecule)
constant: B1 constant with F138Y, Q197W, Y322R
